Reference: publication PMC5902676 (Biochemical Journal, 2018)

Target: T1, HybC (large subunit of E. coli Hydrogenase-2), processed form of 552 residues (E. coli, UniProt P0ACE0 1-552)
T1 sequence (looked up): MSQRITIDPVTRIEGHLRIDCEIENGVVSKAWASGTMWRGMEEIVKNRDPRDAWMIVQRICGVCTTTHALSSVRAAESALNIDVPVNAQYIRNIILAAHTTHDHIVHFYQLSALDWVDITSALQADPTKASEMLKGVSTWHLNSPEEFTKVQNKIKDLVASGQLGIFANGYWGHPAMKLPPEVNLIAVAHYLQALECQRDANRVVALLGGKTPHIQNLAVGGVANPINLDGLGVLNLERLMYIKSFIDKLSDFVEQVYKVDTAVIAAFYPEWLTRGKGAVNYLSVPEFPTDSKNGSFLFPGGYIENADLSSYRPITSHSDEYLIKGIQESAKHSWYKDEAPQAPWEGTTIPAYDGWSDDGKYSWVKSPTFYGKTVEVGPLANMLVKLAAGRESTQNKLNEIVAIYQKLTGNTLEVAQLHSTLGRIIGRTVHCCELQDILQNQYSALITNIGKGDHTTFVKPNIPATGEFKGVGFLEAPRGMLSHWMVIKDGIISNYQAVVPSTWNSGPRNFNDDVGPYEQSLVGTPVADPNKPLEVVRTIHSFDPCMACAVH
Test: crystal structure

binding result: binds
B1: HybO ΔTat ΔTM with C-terminal His-tag (small subunit of E. coli Hydrogenase-2, encoded by plasmid pO^C) (domain or fragment, UniProt P69741 38-330, looked up)
chain: EMAESVTNPQRPPVIWIGAQECTGCTESLLRATHPTVENLVLETISLEYHEVLSAAFGHQVEENKHNALEKYKGQYVLVVDGSIPLKDNGIYCMVAGEPIVDHIRKAAEGAAAIIAIGSCSAWGGVAAAGVNPTGAVSLQEVLPGKTVINIPGCPPNPHNFLATVAHIITYGKPPKLDDKNRPTFAYGRLIHEHCERRPHFDAGRFAKEFGDEGHREGWCLYHLGCKGPETYGNCSTLQFCDVGGVWPVAIGHPCYGCNEEGIGFHKGIHQLANVENQTPRSQKPDVNAKEGG
